From article doi:10.1101/2025.04.25.650734 (bioRxiv, 2025)
One block for each molecule: values may come before it.

What was measured:
Experiment in all cases: single-particle TIRF colocalisation with photobleaching step counting
[1] = molecular target: mTFP-Q-K-K-Q tetramer of concatenated Kir2.1 subunits
[2] = molecular target: tetrameric Kir2.1 construct with three SUMO1 binding sites
[3] = molecular target: mTFP-K-Q-K-Q tetramer of concatenated Kir2.1 subunits
[4] = molecular target: mTFP-K-K, dimer of linked wild type Kir2.1 subunits
[5] = molecular target: mTFP-Q-K-Q-Q tetramer of concatenated Kir2.1 subunits
[6] = molecular target: mTFP-K-Q, dimer of a wild type Kir2.1 subunit linked to a Kir2.1-K49Q subunit
[7] = molecular target: mTFP-K-K-K-K, linked tetramer of wild type Kir2.1 subunits
[8] = molecular target: the molecule itself

stoichiometry N (SUMO1 monomers per channel) [1]: 1
stoichiometry N (SUMO1 monomers per channel) [2]: 2
stoichiometry N (SUMO1 monomers per channel) [3]: 2
stoichiometry N (SUMO1 monomers per channel) [4]: 2
stoichiometry N (SUMO1 monomers per channel) [5]: 1
stoichiometry N (SUMO1 monomers per channel) [6]: 2
stoichiometry N (SUMO1 monomers per channel) [7]: 2
Molecule: mCherry-SUMO1 (from UniProt P63165-1 1-97) (natural protein)

stoichiometry N [4]: 2
Molecule: mTFP-K-K, dimer of linked wild type Kir2.1 subunits

More lines, now with the values behind:

Molecule: mTFP-K-Q, dimer of a wild type Kir2.1 subunit linked to a Kir2.1-K49Q subunit
stoichiometry N [6]: 2

B1: mTFP1-tagged Kir2.1 (natural protein)
chain: MGSVRTNRYSIVSSEEDGMKLATMAVANGFGNGKSKVHTRQQCRSRFVKKDGHCNVQFINVGEKGQRYLADIFTTCVDIRWRWMLVIFCLAFVLSWLFFGCVFWLIALLHGDLDASKESKACVSEVNSFTAAFLFSIETQTTIGYGFRCVTDECPIAVFMVVFQSIVGCIIDAFIIGAVMAKMAKPKKRNETLVFSHNAVIAMRDGKLCLMWRVGNLRKSHLVEAHVRAQLLKSRITSEGEYIPLDQIDINVGFDSGIDRIFLVSPITIVHEIDEDSPLYDLSKQDIDNADFEIVVILEGMVEATAMTTQCRSSYLANEILWGHRYEPVLFEEKHCYKVDYSRFHKTYEVPNTPLCSARDLAEKKYILSNANSFCYENEVALTSKEEEDSENGVPESTSTDSPPGIDLHNQASVPLEPRPLRRESEI
stoichiometry N [8]: 4
